Here are results for 50 substances from patent US6767991.

What all share (experiment): cell-based or functional assay
Assay [1] concerns the target human leukocyte elastase (human) (UniProt P08246).
In assay [2] the target is bovine pancreatic α-chymotrypsin (bovine) (UniProt P00766).
For assay [3], the target named is recombinant NS3 protease with the NS4A peptide cofactor … (molar ratio enzyme:cofactor 1:100) (hepatitis C virus genotype 1b).
The target of assay [4] is porcine pancreatic elastase (porcine) (UniProt P00772).
The target in assay [5] is recombinant HCV NS3 protease type 1b (amino acid 1027 to 1206) (hepatitis C virus genotype 1b).
In assay [6] the target is human liver cathepsin B (human) (UniProt P07858).

Some results are limits rather than exact numbers.

Sequence of human leukocyte elastase (human) (P08246 30-247 limits assumed): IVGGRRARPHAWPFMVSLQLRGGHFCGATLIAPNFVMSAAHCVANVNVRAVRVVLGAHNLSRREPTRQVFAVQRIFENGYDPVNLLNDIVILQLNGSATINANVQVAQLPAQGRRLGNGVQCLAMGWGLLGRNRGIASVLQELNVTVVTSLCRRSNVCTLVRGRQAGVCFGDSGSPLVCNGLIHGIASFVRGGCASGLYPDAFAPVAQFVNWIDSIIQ
Sequence of porcine pancreatic elastase (porcine) (P00772 27-266): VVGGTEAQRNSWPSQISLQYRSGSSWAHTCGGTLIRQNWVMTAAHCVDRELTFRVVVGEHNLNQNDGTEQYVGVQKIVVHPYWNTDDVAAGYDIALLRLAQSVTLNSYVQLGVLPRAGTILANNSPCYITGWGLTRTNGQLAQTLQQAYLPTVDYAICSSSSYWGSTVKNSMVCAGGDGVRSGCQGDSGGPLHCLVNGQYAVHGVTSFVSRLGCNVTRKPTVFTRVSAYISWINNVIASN

By IC50 is commonly meant the concentration needed to halve the response being measured. The substance “Compound 210 (Table 2): Ac-Asp-D-Glu-Chg-Val-Pro(O-Bn)-Cys (peptide)” gave an HLE in assay [1] above 300 µM. For the same substance, in assay [2], the Other is above 300 µM. For the same substance, in assay [3], the half-maximal inhibitory concentration (IC50) worked out at 0.033 µM. This substance also came in with a PPE in assay [4] above 300 µM.
“Compound 239 (Table 2): Ac-Chg-Val-Pro((2Br-Ph)O)-Acca (peptide)”: the IC50 in assay [3] was found to be 27 µM.
Regarding “Compound 511 (Table 5): Ac-Chg-Val-Pro(1-NpCH2O)-P1(R14 CH2OCH2Ph; 1R, 2?) (peptide)”, the IC50 in assay [3] is 32.5 µM.
The same measure, in the same setting: the figure for “Compound 507 (Table 5): Ac-Chg-Val-Pro(1-NpCH2O)-P1(R14 Me; 1R, 2?) (peptide)” is 5.1 µM.
As for “Compound 521 (Table 5): Ac-Asp-D-Val-Chg-Val-Pro(1-NpCH2O)-P1(R14 Et; 1R, 2R) (peptide)”, in assay [1], the HLE was above 300 µM. In addition, the IC50 in assay [3] is 0.024 µM.
As for “Compound 234 (Table 2): Ac-Chg-Chg-Pro(O-Bn)-Acca (peptide)”, in assay [3], the IC50 was found to be 41 µM.
In assay [1], “Compound 506 (Table 5): Ac-Chg-Chg-Pro(1-NpCH2O)-P1(R14 Et; 1S, 2S) (peptide)” registered an HLE above 400 µM.
With “Compound 129 (Table 1): Ac-Asp-Tbg-Ile-Val-Pro-Nva (peptide)”, the IC50 in assay [5] stood at 270 µM.
For “Compound 515 (Table 5): Ac-Chg-Val-Pro(1-NpCH2O)-P1(R14 Bz; 1R, 2?) (peptide)”, in assay [3], the IC50 worked out at 9.2 µM.
For “Compound 206 (Table 2): Ac-Asp-Asp-Ile-Val-Pro(p-tolyl-methoxy)-Nva (peptide)”, the IC50 in assay [5] amounted to 6.4 µM.
Turning to “Compound 232 (Table 2): AcOCH2-C(O)-Chg-Chg-Pro(1-NpCH2O)-Acca (peptide)”, the IC50 in assay [3] was 1.4 µM.
On to “Compound 508 (Table 5): Ac-Chg-Val-Pro(1-NpCH2O)-P1(R14 CHMe2; 1R, 2?) (peptide)”, for which, in assay [3], the IC50 was 4.15 µM.
The same measure, in the same setting: the figure for “Compound 268 (Table 2): Ac-Chg-Val-Pro((3Br-Ph)CH2O)-Acca (peptide)” is 24 µM.
In assay [1], “Compound 227 (Table 2): Ac-Chg-Val-Pro(1-NpCH2O)-Acca (peptide)” had an HLE above 600 µM.
“Compound 503 (Table 5): Ac-Chg-Chg-Pro(1-NpCH2O)-P1(R14 Et; 1R, 2?) (peptide)”: the HLE in assay [1] is 250 µM. Also, the IC50 in assay [3] was 1.35 µM.
In assay [1], “Compound 123 (Table 1): Ac-Asp-Asp-Ile-Val-Pro-Nva (peptide)” gave an HLE above 300 µM. Besides, the IC50 in assay [3] is 220 µM. The PPE in assay [4] is above 300 µM.
For “Compound 114 (Table 1): Ac-Asp-Asp-Ile-Chg-Pro-Cys (peptide)”, the IC50 in assay [5] worked out at 50 µM.
For “Compound 516 (Table 5): Ac-Chg-Val-Pro(1-NpCH2O)-P1(R14 Bz; 1R, 2?) (peptide)”, the IC50 in assay [3] came out at 46.5 µM.
Same read-out and setting: the figure for “Compound 602 (Table 6): P4 Chg, P3 Chg, R13 1-NpCH2O, R14 CH═CH2 (peptide)” is 0.13 µM.
As for “Compound 203 (Table 2): Ac-Asp-D-Glu-Ile-Val-Pro(O-Bn)-Nva (peptide)”, in assay [1], the HLE was above 300 µM. The IC50 in assay [3] was 0.6 µM. In assay [6], this substance displayed an Other above 300 µM. In assay [4], this substance displayed a PPE above 300 µM.
For the substance “Compound 214 (Table 2): Ac-Asp-D-Glu-Chg-Val-Pro(2-NpCH2O)-Nva (peptide)”, the HLE in assay [1] is above 300 µM. In addition, the Other in assay [2] and in assay [6] was above 300 µM each time. Moreover, the IC50 in assay [3] turned out to be 0.028 µM. This substance also registered a PPE in assay [4] above 300 µM.
Turning to “Compound 501 (Table 5): Ac-Chg-Val-Pro(OBn)-P1(R14 Et; 1R, 2R) (peptide)”, in assay [3], the IC50 was determined as 17.1 µM.
Still for that read-out and setting: for “Compound 249 (Table 2): Ac-Chg-Val-Pro((4I-Ph)O)-Acca (peptide)” the value was 9.7 µM.
Consider “Compound 204 (Table 2): Ac-Asp-Asp-Ile-Val-Pro(o-tolyl-methoxy)-Nva (peptide)”, for which, in assay [5], the IC50 stood at 9.4 µM.
Turning to “Compound 601 (Table 6): P4 Chg, P3 Val, R13 OBn, R14 CH═CH2 (peptide)”, in assay [3], the 50% inhibitory concentration (IC50) is 3.61 µM.
Still for that read-out and setting: the figure for “Compound 272 (Table 2): Ac-Chg-Val-Pro((3,5-Br2-Ph)CH2O)-Acca (peptide)” is 27 µM.
On the same count and under the same terms, the figure for “Compound 242 (Table 2): Ac-Chg-Val-Pro((4Br-Ph)S)-Acca (peptide)” is 36 µM; for “Compound 510 (Table 5): Ac-Chg-Val-Pro(1-NpCH2O)-P1(R14 CH2OCH2Ph; 1R, 2?) (peptide)” it is 15.5 µM; for “Compound 505 (Table 5): Ac-Chg-Chg-Pro(1-NpCH2O)-P1(R14 Et; 1R, 2R) (peptide)” it is 0.55 µM.
On the same count and under the same terms, the figure for “Compound 231 (Table 2): Ac-Chg-Chg-Pro(1-NpCH2O)-Acca (peptide)” is 2.6 µM; for “Compound 504 (Table 5): Ac-Chg-Chg-Pro(1-NpCH2O)-P1(R14 Et; 1R, 2?) (peptide)” it is 9.53 µM.
In assay [1], “Compound 518 (Table 5): Ac-Asp-D-Glu-Chg-Val-Pro(1-NpCH2O)-P1(R14 Et; 1R, 2R) (peptide)” showed an HLE above 300 µM. Further, the IC50 in assay [3] was found to be 0.011 µM.
As for “Compound 235 (Table 2): Boc-Chg-Chg-Pro(1-NpCH2O)-Acca (peptide)”, the IC50 in assay [3] came out at 12 µM.
For “Compound 127 (Table 1): Ac-Asp-Asp-Ile-Val-Pip-Nva (peptide)”, the IC50 in assay [5] worked out at 605 µM.
On the same count and under the same terms, the figure for “Compound 110 (Table 1): Ac-Asp-Asp-Chg-Val-Pro-Cys (peptide)” is 24 µM.
As to “Compound 502 (Table 5): Ac-Chg-Val-Pro(OBn)-P1(R14 Et; 1R, 2?) (peptide)”, the IC50 in assay [3] amounted to 12.6 µM.
Consider “Compound 115 (Table 1): Ac-Asp-Asp-Ile-Val-Abu-Cys (peptide)”, for which the IC50 in assay [5] was 58 µM.
For “Compound 520 (Table 5): Ac-Chg-Val-Pro(1-NpCH2O)-P1(R14 Pr; 1R, 2?) (peptide)”, the IC50 in assay [3] was 22.5 µM.
Same read-out and setting: the figure for “Compound 514 (Table 5): Ac-Chg-Val-Pro(1-NpCH2O)-P1(R14 Et; 1S, 2S) (peptide)” is 27.5 µM.
Regarding “Compound 205 (Table 2): Ac-Asp-Asp-Ile-Val-Pro(m-tolyl-methoxy)-Nva (peptide)”, the concentration for half-maximal inhibition (IC50) in assay [5] came out at 6.7 µM.
“Compound 252 (Table 2): Ac-Chg-Val-Pro(1-NpCH2O)-Nva (peptide)”: the IC50 in assay [3] turned out to be 20 µM.
In assay [1], “Compound 513 (Table 5): Ac-Chg-Val-Pro(1-NpCH2O)-P1(R14 Et; 1R, 2R) (peptide)” came in with an HLE above 300 µM.
In the case of “Compound 512 (Table 5): Ac-Chg-Val-Pro(1-NpCH2O)-P1(R14 (CH2)2Ph; 1R, 2?) (peptide)”, the IC50 in assay [3] amounted to 19.5 µM.
“Compound 238 (Table 2): Ac-Chg-Val-Pro((4Br-Ph)O)-Acca (peptide)”: in assay [1], the HLE worked out at 195 µM. In addition, the IC50 in assay [3] amounted to 27 µM.
For the substance “Compound 240 (Table 2): Ac-Chg-Val-Pro((3Br-Ph)O)-Acca (peptide)”, the IC50 in assay [3] worked out at 42 µM.
On the same count and under the same terms, the figure for “Compound 519 (Table 5): Ac-Chg-Val-Pro(1-NpCH2O)-P1(R14 Pr; 1R, 2?) (peptide)” is 3.45 µM; for “Compound 604 (Table 6): P4 Chg, P3 Val, R13 OBn, R14 CH═CHBr* (peptide)” it is 2.55 µM.
Still for that read-out and setting: for “Compound 603 (Table 6): P4 Chg, P3 Val, R13 1-NpCH2O, R14 CH═CH2 (peptide)” the value was 0.36 µM.
In turn, “Compound 212 (Table 2): Ac-Asp-D-Glu-Ile-Val-Pro(O-Bn)-Acca (peptide)” yielded an HLE in assay [1] above 300 µM. In addition, in assay [3], the IC50 was 0.21 µM. This substance also returned a PPE in assay [4] above 300 µM.
“Compound 509 (Table 5): Ac-Asp-D-Glu-Chg-Chg-Pro(1-NpCH2O)-P1(R14 Et; 1R, 2R) (peptide)”: the HLE in assay [1] is above 300 µM. Also, the IC50 in assay [3] amounted to 0.015 µM.
